Earlier results on 1 substance are cited in publication PMC11087986.

Data set [1] deals with RBM39 RRM1-RRM2 (Homo sapiens) (UniProt Q14498).
Data set [2] shares this target. The source holds these as a separate data set.
The target is the same in data set [3]. This is another data set of the same source.

Where two headings read alike, the source gives them in different places.

UniProt Q14498, sequence (Q14498 153-328): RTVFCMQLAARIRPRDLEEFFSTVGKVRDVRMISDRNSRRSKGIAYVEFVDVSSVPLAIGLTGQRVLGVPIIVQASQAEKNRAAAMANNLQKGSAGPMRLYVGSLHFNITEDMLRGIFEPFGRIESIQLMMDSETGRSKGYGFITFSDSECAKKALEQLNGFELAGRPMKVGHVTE

On to DCAF15 (from UniProt Q66K64), for which the dissociation constant Kd (as a rule, the equilibrium constant for the complex coming apart) in data set [1] is 120 nM; in data set [2], 4600 nM; in data set [3], 160 nM.
